The target in assay [1] is rabbit muscle actin (rabbit) (UniProt P68135). In words: surface plasmon resonance (BIAcore), F(ab)'2 immobilised, 0.3 µg rabbit muscle actin injected. For orientation: In SPR one partner is held on a chip, and binding of the other changes the refractive index at the surface.
Assay [2] addresses A33 antigen on the surface of human colon cancer cells (human). In words: rosetting assay on SW1222 cells.
For assay [3] the target is unchanged. In words: rosetting assay on NCI-H508 cells.
For assay [4] the target is unchanged. The experiment in a line: rosetting assay on ASPC-1 (pancreatic) cells.
Assay [5] has the same target. The experiment in a line: rosetting assay on LS 174T cells.
Assay [6] shares this target. The experiment in a line: rosetting assay on SK-CO-17 cells.
The target is the same in assay [7]. In words: rosetting assay on SK-CO-19 cells.
The target is the same in assay [8]. The experiment in a line: rosetting assay on LIM 1215 cells.
The target is the same in assay [9]. The experiment in a line: rosetting assay on LOVO cells.
The target is the same in assay [10]. The experiment in a line: rosetting assay on SNC-2B cells.
For assay [11] the target is unchanged. In words: rosetting assay on SW403 cells.
The target is the same in assay [12]. In words: rosetting assay on LS 180 cells.
The target in assay [13] is rabbit muscle actin (rabbit) (UniProt P68135). In words: surface plasmon resonance (BIAcore), whole A33 immobilised, 0.3 µg rabbit muscle actin injected.

In assay [1], “F(ab)'2 fragment of A33 humanized monoclonal antibody” registered a signal at the end of the injection pulse (RU) of 4 RU.

Turning to “monoclonal antibody A33 (mAb A33), murine immunoglobulin, isotype IgG2a, secreted by hybridoma ATCC No. HB 8779”, the Rosetting A. Titer came out at 4096 in assay [2]; 4096 in [3]; 8192 in assay [4]; 4096 in [5]; 512 in assay [6]; 8192 in assay [7]. Further, the Rosetting A. Titer in assay [8] came out at 8192; in [9], 4096; in assay [10], 4096; in [11], 8192; in assay [12] it was 2048.

In the case of “whole A33 (A33 IgG) immobilised on the biosensor surface (antibody)”, in [13], the signal at the end of the injection pulse (RU) is 247 RU.

The values are drawn from patent publication US6291235.
